Here are results for one molecule from US20200199214A1 (Hoffmann-La Roche, published 2020).

The target of assay [1] is T1, Human VEGF121-His (human, UniProt P15692-9 27-147).
T1 construct: not shown: His tag
T1 sequence (looked up): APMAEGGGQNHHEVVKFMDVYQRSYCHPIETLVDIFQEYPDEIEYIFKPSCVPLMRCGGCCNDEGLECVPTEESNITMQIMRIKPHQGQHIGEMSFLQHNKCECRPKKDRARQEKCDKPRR
Kind of assay: SPR, VEGF121-His captured via anti-His antibody, Fab injected, single cycle kinetics, 1:1 Langmuir fit. As for the experimental part: An anti-His capturing antibody (GE Healthcare 28995056) was immobilized to a Series S Sensor Chip C1 (GE Healthcare 29104990) using standard amine coupling chemistry resulting in a surface density of approximately 500 resonance units (RU). As running and dilution buffer, HBS-P+(10 mM HEPES, 150 mM NaCl pH 7.4, 0.05% Surfactant P20) was used. Human VEGF121-His was captured to the surface with resulting ligand densities of approximately 10 and 20 RU, respectively. A dilution series of the bispecific anti-VEGF/anti-IL-1beta Fab fragment (1.2-100 nM, 1:3 dilution) was successively injected for 90 s each, dissociation was monitored for 3600 s at a flow rate of 30 μl/min (single cycle kinetics). The surface was regenerated by injecting 10 mM Glycine pH 1.5 for 60 s. Bulk refractive index differences were corrected by subtracting blank injections and by subtracting the response obtained from the control flow cell without captured human VEGF121. Curve fitting was performed using the 1:1 Langmuir binding model within the Biacore evaluation software. To provide more robust fitting, the Multiple Rmax option was chosen for global fitting using both ligand densities.
Binding kinetics to VEGF and IL-1beta for the candidate antibodies were assessed as described in Example 3 using the indicated bispecific anti-VEGF/anti-IL-1beta Fab fragments (amino acid sequence as illustrated in Table 3). For comparison, antigen binding kinetics of prior art anti-VEGF/anti-IL-1beta antibody 0032, a full length IgG antibody, as disclosed in WO2016/075034 are depicted.

In assay [2] the target is T2, human IL-1 beta (PeproTech 200-01B) (human, UniProt P01584 117-269).
T2 construct: As printed it covers only the N-terminal part of the precursor, so it was not used; also called huIL-1 beta; IL1β
As to the kind of experiment: SPR competition: Fab (from 200 nM, 1:2 dilutions) preincubated with 50 nM IL-1beta, injected over immobilised IL-1bR1 (competitor); without VEGF. As for the experimental part:
As running and dilution buffer, HBS-P+(10 mM HEPES, 150 mM NaCl pH 7.4, 0.05% Surfactant P20) was used.
For assessing VEGF-receptor binding inhibition, a final concentration of 200 nM of R07200394 or 400 nM antibody 0032 was preincubated with 50 nM VEGF121. For assessing IL-1beta-receptor binding inhibition, a final concentration of 200 nM of R07200394 or 200 nM antibody 0032 was with preincubated with 50 nM IL-1beta. Samples were diluted (1:2) in the corresponding 50 nM VEGF121 or IL-1beta solution.
The antibody/ligand mixtures were injected onto the VEGFR2 or IL-1R1 surface for 60 s at a flow rate of 5 μl/min. After a dissociation phase for 60 s, the VEGFR2 surface was regenerated by injecting 5 mM NaOH for 60 s, whereas the IL-1R1 surface was regenerated by injecting 10 mM Glycine pH 3.0 followed by 5 mM NaOH for 60 s each. Bulk refractive index differences were corrected by subtracting blank injections and by subtracting the response obtained from the blank control flow cell. For evaluation, the binding response 5 seconds after inject end was taken. The derived response in RU was transformed to a binding response relative to the initial signal corresponding to the ligand(s) without antibody. IC50 values were calculated using a 4 parameter logistic model (XLfit, ID Business Solutions Ltd.)

B1: bispecific anti-VEGF/anti-IL-1beta Fab fragment RO7200394 (Fab, V domains shown)
VH: DEQLVESGGGLVKPGGSLRLSCAAEGMVFKWNDMSWVRQAPGKGLEWVGSISKKGDHKYLNTKFIGRFTISRDNEKDTLYLQMNSLRAEDTAVYYCAKDVGFFDIWGQGTLVTVSS
VL: AIYMHQEPSSLSASVGDRVTITCHGSYWLSSLVAWYQQKPGKAPKLLIYDAKYKHLGVPSRFSGSKEDQEFTLTISSLQPEDFATYYCQQYRYHPYTFGHGTKVEIKR
notes: same variable domains as 1HVL12.85; also called R07200394
Regarding B1, in assay [1], the Kd was 0.006 nM, the off-rate (koff) was determined as 1.63e-05 s⁻¹, the kon is 2.85e+06 M⁻¹ s⁻¹ and the t½ worked out at 11.8 h. The molecule further had an IC50 in assay [2] of 22 nM.
